# T1: ELXR4-ZIM3 (#4.A) (synthetic construct)
# T1 chain: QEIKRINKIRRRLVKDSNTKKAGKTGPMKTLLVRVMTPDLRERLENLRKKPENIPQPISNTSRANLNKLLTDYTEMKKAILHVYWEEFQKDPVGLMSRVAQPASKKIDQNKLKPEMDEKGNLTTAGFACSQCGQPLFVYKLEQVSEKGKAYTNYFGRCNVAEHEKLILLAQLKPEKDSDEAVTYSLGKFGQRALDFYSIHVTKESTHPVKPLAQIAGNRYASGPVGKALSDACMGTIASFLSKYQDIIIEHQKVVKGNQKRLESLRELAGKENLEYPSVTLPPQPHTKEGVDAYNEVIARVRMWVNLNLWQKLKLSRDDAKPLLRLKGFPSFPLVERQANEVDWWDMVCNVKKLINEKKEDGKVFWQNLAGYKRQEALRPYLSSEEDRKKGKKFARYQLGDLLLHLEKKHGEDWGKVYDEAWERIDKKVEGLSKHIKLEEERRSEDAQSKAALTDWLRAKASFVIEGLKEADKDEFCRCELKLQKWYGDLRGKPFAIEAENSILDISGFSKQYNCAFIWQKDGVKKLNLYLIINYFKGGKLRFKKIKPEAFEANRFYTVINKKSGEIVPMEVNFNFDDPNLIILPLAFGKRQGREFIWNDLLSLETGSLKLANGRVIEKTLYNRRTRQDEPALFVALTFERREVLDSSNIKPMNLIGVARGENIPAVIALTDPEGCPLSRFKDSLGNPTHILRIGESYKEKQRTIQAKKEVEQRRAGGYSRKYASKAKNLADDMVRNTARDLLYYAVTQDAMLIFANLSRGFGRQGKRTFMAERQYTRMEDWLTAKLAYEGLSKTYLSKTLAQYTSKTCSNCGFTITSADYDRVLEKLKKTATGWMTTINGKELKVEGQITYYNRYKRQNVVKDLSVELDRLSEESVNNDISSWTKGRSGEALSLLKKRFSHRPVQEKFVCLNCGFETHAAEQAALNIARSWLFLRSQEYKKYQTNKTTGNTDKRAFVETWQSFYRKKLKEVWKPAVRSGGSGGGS
# T2: ELXR4-ZNF10 (#4.B) (synthetic construct)
# T2 chain: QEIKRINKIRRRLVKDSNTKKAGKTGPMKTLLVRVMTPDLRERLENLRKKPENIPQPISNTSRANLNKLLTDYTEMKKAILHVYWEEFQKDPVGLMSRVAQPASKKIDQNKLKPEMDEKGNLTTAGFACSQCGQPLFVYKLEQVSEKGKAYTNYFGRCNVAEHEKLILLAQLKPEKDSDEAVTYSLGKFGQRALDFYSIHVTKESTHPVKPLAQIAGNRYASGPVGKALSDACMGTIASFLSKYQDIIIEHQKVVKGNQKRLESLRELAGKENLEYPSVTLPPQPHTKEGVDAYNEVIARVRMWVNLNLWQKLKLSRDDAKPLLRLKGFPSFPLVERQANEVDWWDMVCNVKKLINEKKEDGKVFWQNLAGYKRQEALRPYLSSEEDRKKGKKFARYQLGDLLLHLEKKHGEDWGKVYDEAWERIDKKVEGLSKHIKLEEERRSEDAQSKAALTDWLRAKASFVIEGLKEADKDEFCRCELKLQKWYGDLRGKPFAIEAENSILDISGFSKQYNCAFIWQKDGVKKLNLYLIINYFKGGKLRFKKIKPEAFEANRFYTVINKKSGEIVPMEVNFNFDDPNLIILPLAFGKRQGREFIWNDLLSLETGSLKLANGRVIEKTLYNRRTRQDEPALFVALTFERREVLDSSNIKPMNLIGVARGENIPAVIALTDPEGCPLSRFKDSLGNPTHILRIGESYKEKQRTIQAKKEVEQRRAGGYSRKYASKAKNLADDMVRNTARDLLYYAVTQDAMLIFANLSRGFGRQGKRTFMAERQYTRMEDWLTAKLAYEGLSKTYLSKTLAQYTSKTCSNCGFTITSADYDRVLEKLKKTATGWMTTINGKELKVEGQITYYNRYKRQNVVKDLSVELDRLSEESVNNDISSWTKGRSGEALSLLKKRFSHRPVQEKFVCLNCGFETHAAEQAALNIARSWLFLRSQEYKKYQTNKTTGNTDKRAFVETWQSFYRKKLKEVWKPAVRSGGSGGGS
# T3: ELXR2-ZNF10 (#2.B) (synthetic construct)
# T3 chain: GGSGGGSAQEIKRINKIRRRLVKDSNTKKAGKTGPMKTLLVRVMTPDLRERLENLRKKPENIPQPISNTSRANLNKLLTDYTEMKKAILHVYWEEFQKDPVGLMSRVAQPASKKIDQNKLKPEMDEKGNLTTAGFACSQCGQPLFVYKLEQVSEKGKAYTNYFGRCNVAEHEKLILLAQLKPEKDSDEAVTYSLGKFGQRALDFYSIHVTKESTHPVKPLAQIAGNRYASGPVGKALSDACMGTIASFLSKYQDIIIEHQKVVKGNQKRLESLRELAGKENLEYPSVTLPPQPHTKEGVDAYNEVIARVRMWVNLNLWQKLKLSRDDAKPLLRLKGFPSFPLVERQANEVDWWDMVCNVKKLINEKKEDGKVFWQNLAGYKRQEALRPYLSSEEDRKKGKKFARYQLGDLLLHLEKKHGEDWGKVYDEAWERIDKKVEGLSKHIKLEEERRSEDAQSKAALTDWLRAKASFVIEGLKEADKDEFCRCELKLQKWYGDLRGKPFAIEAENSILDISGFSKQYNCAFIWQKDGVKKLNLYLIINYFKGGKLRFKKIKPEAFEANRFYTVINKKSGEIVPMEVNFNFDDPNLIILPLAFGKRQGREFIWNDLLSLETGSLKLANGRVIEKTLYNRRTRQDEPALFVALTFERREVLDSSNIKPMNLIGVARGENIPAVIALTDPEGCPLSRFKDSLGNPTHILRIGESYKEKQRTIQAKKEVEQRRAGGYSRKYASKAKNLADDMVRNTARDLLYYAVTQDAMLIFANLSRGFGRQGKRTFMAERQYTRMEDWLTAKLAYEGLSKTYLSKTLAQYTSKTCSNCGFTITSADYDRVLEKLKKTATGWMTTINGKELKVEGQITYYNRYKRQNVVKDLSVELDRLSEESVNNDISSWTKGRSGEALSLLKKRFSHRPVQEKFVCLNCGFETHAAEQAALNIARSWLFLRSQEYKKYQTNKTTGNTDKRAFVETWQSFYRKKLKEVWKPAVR
# B1: gRNA scaffold 174 + spacer 7.37 ; B2M target 7.37 (ssRNA ; dsDNA)
# RNA: ACUGGCGCUUUUAUCUGAUUACUUUGAGAGCCAUCACCAGCGACUAUGUCGUAGUGGGUAAAGCUCCCUCUUCGGAGGGAGCAUCAAAGGGCCGAGAUGUCUCGCUCCG
# DNA 1: GGCCGAGATGTCTCGCTCCG
# DNA 2: CGGAGCGAGACATCTCGGCC
# Legend:
# [1] = molecular target: T1, ELXR4-ZIM3 (#4.A); experiment: cell_activity; PAM TTC; day 73; conditions: tags: DNMT3A CD, DNMT3L ID, ZIM3 KRAB fusion, NLS
# [2] = molecular target: T2, ELXR4-ZNF10 (#4.B); experiment: cell_activity; PAM TTC; day 73; conditions: tags: DNMT3A CD, DNMT3L ID, ZNF10 KRAB fusion, NLS
# [3] = molecular target: ELXR5-ZIM3 (#5.A) (synthetic construct); experiment: cell_activity; PAM TTC; day 73; conditions: tags: DNMT3A CD, DNMT3L ID, ZIM3 KRAB fusion, NLS
# [4] = molecular target: ELXR5-ZNF10 (#5.B) (synthetic construct); experiment: cell_activity; PAM TTC; day 73; conditions: tags: DNMT3A CD, DNMT3L ID, ZNF10 KRAB fusion, NLS
# [5] = molecular target: T3, ELXR2-ZNF10 (#2.B); experiment: cell_activity; PAM TTC; day 50; conditions: tags: DNMT3A CD, DNMT3L ID, ZNF10 KRAB fusion, NLS
# ELXR5-ZNF10 (#5.B) (synthetic construct), sequence (chain, as listed by the source): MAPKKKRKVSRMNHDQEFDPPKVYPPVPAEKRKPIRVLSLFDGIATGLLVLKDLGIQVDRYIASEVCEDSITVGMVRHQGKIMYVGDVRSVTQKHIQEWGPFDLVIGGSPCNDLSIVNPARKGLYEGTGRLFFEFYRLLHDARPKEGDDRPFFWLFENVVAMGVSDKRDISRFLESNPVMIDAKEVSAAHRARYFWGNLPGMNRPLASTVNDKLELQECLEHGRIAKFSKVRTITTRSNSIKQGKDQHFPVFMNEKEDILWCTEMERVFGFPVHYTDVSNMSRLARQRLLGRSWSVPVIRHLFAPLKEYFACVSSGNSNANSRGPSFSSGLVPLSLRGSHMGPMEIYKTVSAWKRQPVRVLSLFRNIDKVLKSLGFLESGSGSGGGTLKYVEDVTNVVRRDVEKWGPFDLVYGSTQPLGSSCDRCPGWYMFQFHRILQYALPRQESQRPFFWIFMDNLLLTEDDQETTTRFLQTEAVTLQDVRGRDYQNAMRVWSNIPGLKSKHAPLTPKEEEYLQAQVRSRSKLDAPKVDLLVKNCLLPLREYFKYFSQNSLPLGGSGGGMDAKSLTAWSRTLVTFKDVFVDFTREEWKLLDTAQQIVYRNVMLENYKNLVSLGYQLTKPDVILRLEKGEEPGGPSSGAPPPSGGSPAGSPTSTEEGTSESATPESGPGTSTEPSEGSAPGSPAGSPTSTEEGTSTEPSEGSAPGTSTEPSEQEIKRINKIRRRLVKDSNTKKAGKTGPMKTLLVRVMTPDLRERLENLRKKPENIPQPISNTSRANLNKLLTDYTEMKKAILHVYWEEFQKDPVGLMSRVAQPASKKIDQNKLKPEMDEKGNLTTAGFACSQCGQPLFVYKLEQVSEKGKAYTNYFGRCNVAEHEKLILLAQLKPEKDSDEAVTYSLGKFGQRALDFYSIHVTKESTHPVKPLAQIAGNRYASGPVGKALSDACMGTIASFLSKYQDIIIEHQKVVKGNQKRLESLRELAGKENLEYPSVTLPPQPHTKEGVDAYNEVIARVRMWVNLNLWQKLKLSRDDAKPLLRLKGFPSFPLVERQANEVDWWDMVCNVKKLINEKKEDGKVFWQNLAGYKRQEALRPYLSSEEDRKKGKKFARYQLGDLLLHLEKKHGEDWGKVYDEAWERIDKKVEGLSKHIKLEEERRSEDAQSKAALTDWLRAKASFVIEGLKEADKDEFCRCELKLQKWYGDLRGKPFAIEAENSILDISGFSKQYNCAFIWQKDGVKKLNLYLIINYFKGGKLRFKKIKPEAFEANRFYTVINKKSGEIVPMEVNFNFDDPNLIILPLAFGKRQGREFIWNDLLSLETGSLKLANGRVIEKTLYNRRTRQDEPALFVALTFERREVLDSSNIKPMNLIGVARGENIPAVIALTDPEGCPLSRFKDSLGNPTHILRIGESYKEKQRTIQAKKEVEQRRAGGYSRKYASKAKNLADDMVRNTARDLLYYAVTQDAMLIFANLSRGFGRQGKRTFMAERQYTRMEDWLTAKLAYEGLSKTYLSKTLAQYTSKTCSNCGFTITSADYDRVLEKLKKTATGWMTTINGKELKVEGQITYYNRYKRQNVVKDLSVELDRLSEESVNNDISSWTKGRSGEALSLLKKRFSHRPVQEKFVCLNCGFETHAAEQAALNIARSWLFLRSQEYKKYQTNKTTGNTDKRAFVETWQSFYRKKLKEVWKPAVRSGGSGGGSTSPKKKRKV
# ELXR5-ZIM3 (#5.A) (synthetic construct), sequence (chain, as listed by the source): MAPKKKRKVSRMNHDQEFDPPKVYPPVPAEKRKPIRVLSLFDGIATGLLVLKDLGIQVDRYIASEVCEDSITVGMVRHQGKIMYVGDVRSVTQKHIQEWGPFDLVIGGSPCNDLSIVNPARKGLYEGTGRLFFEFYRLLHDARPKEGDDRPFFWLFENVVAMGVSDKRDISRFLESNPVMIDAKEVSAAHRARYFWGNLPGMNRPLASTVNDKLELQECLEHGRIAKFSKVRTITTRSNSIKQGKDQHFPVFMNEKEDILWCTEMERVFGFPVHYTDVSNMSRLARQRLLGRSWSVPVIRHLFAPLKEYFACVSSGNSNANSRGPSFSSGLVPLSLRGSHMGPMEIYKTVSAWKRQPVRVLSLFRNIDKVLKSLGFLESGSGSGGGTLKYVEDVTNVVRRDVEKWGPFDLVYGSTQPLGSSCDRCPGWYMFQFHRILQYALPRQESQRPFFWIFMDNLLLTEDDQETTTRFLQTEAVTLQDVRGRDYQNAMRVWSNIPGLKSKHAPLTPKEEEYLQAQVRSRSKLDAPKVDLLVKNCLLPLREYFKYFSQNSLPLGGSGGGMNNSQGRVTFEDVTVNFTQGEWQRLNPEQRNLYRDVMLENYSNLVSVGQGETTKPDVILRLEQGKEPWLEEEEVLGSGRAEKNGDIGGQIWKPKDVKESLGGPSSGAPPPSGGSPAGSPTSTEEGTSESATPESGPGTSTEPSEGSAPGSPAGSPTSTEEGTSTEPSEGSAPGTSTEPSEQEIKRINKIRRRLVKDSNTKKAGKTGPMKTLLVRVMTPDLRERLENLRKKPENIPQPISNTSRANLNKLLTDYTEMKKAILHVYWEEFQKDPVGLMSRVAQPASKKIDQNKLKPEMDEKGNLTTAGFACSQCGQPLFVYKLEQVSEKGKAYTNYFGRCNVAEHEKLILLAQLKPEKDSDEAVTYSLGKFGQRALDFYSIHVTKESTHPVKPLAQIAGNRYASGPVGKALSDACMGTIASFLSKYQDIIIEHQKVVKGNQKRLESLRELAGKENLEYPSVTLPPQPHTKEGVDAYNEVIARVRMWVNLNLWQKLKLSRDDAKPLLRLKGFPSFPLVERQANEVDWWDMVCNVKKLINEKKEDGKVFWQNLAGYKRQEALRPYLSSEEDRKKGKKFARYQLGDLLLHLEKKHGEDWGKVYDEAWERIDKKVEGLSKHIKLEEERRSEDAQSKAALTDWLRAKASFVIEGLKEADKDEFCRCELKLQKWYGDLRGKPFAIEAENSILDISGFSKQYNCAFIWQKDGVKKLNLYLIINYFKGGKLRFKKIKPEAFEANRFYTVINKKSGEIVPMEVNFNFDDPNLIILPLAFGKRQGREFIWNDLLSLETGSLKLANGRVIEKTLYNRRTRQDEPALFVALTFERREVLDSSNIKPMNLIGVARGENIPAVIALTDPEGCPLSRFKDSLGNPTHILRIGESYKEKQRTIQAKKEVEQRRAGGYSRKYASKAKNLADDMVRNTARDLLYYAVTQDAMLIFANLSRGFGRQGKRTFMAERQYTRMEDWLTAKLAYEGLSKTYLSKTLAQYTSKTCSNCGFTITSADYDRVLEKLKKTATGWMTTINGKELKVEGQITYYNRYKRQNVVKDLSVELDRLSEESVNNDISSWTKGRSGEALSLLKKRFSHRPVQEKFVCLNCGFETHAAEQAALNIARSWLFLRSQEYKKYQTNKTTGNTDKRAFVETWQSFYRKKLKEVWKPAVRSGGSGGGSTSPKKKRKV
binder,measurement,setting,value
B1,activity,[1],69 % HLA-negative cells
same,activity,[2],55.2 % HLA-negative cells
same,activity,[3],74.9 % HLA-negative cells
same,activity,[4],60.8 % HLA-negative cells
same,activity,[5],36.9 % HLA-negative cells
